Source: PMC4760761

Target: T1, CodY-6His (Listeria monocytogenes) (UniProt A0A0H3GGF1)
T1 sequence: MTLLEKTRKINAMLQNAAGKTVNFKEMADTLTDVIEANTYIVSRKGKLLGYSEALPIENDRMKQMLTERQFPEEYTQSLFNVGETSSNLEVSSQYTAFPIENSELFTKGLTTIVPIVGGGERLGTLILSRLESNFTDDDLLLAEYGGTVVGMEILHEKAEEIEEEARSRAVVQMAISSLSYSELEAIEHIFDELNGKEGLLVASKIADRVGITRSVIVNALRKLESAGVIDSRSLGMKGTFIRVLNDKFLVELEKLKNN
Test: EMSA
Conditions: EMSA: 20 mM Tris-Cl pH 8, 50 mM KCl, 2 mM MgCl2, 0.5 mM EDTA, 1 mM DTT, 0.05% NP-40, 5% glycerol, 25 ug/ml salmon sperm DNA, 4 ng DIG-DNA, 15 min room …

Row | Substance | Kd [nM]
1 | AAAAGTAACATTTATTTTTCAGAAAAAATTTTTTAATTTTTACCGCGATGGATTCATTCGCGGTTTTTTTGTATGTAATGCATTGGTATATAAGGCTTTATCTATAATGTTAGATTATCTAACATAAATTTGACAAAACATCTAACGTACATTATAATGCTACTATCATCAAAAAAATAATTATGTTTTGAGGGGGAATTGTCGTGAGCGAAAAGGAAATCCGGAGATCGATGCCGCTTTTTCCAATTGGGCCTGTGATGAAGCTAACTGATCTCACTGCTAGACAAATTCGCTACTATG (double strand) [glnR upstream probe] | 74
2 | AACCGTCACTTGTGGCGGTTTTTTTGTGTTTTCATCTTTGTGAATTAATTTTGATTTCTTTTAAAATTGGTTATAACTCTCGCGAATTGGGGTAAAAGTAAAGAGGCAGATGAAGATACATTGTGAAAAATTGATATGATAGGACAAGTCGTTTGATTGACAGCGTTTTCTTGATATGATTAAATAGACTCAAGTTAATTAACATGTCAGGAGAAGAGATGACAATCGAAACGATGCAAGGGTACTAGTGTGCCTACGTTTTGATTGTCATTCTTTTTTTGAAGTTAATTGATAATCGGAATGTAAGGGGACTAGTAAGTGTTAAAATTCCGGTGCTACAAATAAGCAAGAAGAAGGAGTTGGAAAAGATGATTGACACAAGTTTAGCAACACAATTTCTAGGTGAAGTCATTGGTACGGCTATACTAATTATTTTAGGTGCTGGTGTCGTAGCAGGTGTTTCACTGAAAAGATCCAAAGCAGAGAATG (double strand) [glpF (LMRG_01431) upstream probe] | 114
3 | ATTCAACCCTCTTTCAAAATTCTTTTTCCCAAGTGCTTTAAATGGTACACTAATTATACCATAAGCAACTATTTTTCTATTCATTATTTACAAAAACGCTTTAACGTGCTAATATGCTAATAAACTAAAATATCGTAAAGGAGCTAACCAGATGAACTTAAATAAGAACTTACCAACTGGAACACGTGATAAACTTTTTCGTGAAGCACGAGCTGCATACAAAATTGAGCAACAAGTGAATCATTATTTT (double strand) [hisZ (LMRG_00251) upstream probe] | 150
4 | ATTCGCTCAACTCCTTCAATATAACTTCAATAACAAGTATAGCAGTTTTATGAACAGGAACCAATTTATTACTATTTGAAATGATTATTTTTATTTAGAAATGTATTTTTAAGCATAATTATGAATAAATGAAAATAAAAAGGTTGATATCTAAAAGCATCGATGTTAATATAAATACAAATGTTTGTATATTTATGAATAGGGGATGTTTAAAATGGCGAAAGAAAAAATCGTATTAGCTTACTCAGGTGGGTTAGATACTTCTGTGGCAATTCAGTGGTTAGTAGAATCAGGTTATGAAGTTATTGCATGTT (double strand) [argG (LMRG_01241) upstream probe] | 70
5 | CATTAAATCCTCCCTCTTCCCATTATTACCTTTCAATATCCTTAATGGACATTTAACATCTATATACAATACACCCATTTTTTTTAAAGTGCAAGAGTTTTTTACTAAAAATGGAAAAAAATTTAATGAATGCGTTTGCTGCGAATAGAACAACTATAAGCATTGTCTCAAAAATTTTTCCTGGCTAAGAAAAAAACTGGAATAATTTTCGAAAACAAACGTGCTAATCTTATACATGTTCCAACAAACAATTACTTAGGAGGTGCTTTTCTCGTGTTAACTGATGATGTTCCAAAAAAATCACATTTACCATTAATTAAGCATCATTCTAATTACTTATAGCTTCGTTTAGTTGTATTTTCGCAAACAAAAAATTGGGAGGTAACATACAATGTCTAAACAAGCAAAGTCTTTAACCTTATTCGGATTTTTCGCCATCACGGCTTCCATGGTTATGACCGTTTATGAATATCCAACATTTGCCACTTCCG (double strand) [gadC-gadG (LMRG_01480) upstream probe] | 25
6 | CTTCTATATCTACTCATTAAAACCTAAGCAAACGTTCTCATTAACTACATTTTAAAAAATTTCAGAAAAATTGGTTTTTATGCTTGAAAATATTCTCAACAATGTGTAAACTAACAACATAGGTAAGAAAAGTTGACCAAATTTCAGAAAAATTTACTTAACGCACACAAGCCAATGTTTTTCTTCTTTATAACATTGCATGTATTTGCGTCAGGTTTTCTACTTTTCCTTATAGTCAAAATATTTAAACAAGGAGCGATTATAGTATGGCACAAACATCCACTATCCAAAACGACACAAAGGCAGCCGAAGAATACGCAGCTCGAGTGTTTGAAACAATTAAACAACGGAATCCTGGCGAAACGGAATTCCACCAAGCAGTTGAAGAATTCTTAAACTCTGTTATCCCAGCCCTTGCAAAAGAACCTAAATACGAAGCAAATGGCATTTTAGAACAGTTAACAGAACCCGAACGCCTTATCAGTTTCCGAGTTCCATGGGTGGATGATTCTGGCA (double strand) [gdhA (LMRG_00242) upstream probe] | 57
7 | GAAGAAGTGAAGACGTACCTCATTCTTTAGAGAGCATTTACTGGTGAGTAAACGTATTTAAAGAGTGGAGCGTTTTTATTTTTGAATGTTTTAATTTTATTAGTTAGGGTAAAATCGACAGTATACTTAAAATTAGATGGGGTGAAGTGATGAATATTAGTATAGAAATAAAAGAACGTGATACTGACCACATAGACATATTTGTTGCTGGGGAGATCGATGCTTATACAGCGCCAAAGGTAAAAGAAGCATTAGAAGTATATCAAGTTAAAGAGGG (double strand) [rsbV-sigB (LMRG_02317) upstream probe] | 152
8 | GTTAATTGCCTCCATTAATATACATATTATAGTTACCATTTTACTATAAAAAAGAACAACTTGACAGAAAAAAAGTGATTAAAAACAGCTCCAGCACTTATTTCCGTGTATCAATACAGAGGTAAAAAGGCATGCCACTTAGGCAAAAGACGGCTATGCTCTTAAGAAATTTTTTTGCTGTTATACCCTACTATTTTGCTATTCTAACAGCAATTTCAAAAAAACACTTCATATTAAGGTCTGTTCGTGATAAAATGAACATAGTTGATAATGATTATCATGTTCATTACATAACATAAAAGGAGGCCTGCTAGCTTATGCAATTAAATGAAACTGCTGTCGGTGAAAAAGTTCGCATCTCAGAATTAAAAATTGAGAACGCTATGCTTAAACGTCGCTTACTTGCACTTGGTTGCGATGAAGGTTGTGATATTTGTATCAAACAAAAAGGACTATTTGGTG (double strand) [feoA (LMRG_01257) upstream probe] | 90
9 | TATAATTCTCCTTTAATAGTTTAATGTTGGTTAAACTAGCTGAAGGATTGAAGAGTTTATTTCACTCTTACTTTCTAAACAATCCTAAAGCCATTGTTAGAAAGTCGAGAGCAGTGCAATTTTGTTTGCATCTCTTTGATCACCACCTTGCCTTCATTATAAGCACTTCTGAATTGTTCGTCAATTCTCTTTTATGAATACTCTTCTAAAAACAGGGTAAACGAAAACTATTGGACATTAGAGAAAACATCCATGGGAGGAGAAAGTAAAATGAAAAAAGTAAAAGCAAGTGAAACACTCGTACAAACATTAAAAAATTGGGGTATCGACCACGTATATGGCTTGCCCGGCGATTCGATTGACACCGTAGTTGACGCTTTACGAAAAGAAC (double strand) [poxB (LMRG_00411) upstream probe] | 55
10 | TTAACAAATGTTAGAGAAAAATTAATTCTCCAAGTGATATTCTTAAAATAATTCATGAATATTTTTTCTTATATTAGCTAATTAAGAAGATAATTAACTGCTAATCCAATTTTTAACGGAATAAATTAGTGAAAATGAAGGCCGAATTTTCCTTGTTCTAAAAAGGTTGTATTAGCGTATCACGAGGAGGGAGTATAAGTGGGATTAAATAGATTTATGCGTGCGATGATGGTAGTTTTCATTACTGCCAACTGCATTACGATTAACCCCGACATAATATTTGCAGCGACAGATA (double strand) [actA (LMRG_02626) upstream probe] | 208
11 | fliN (LMRG_02874) upstream probe | 26
12 | glnR upstream probe | 74
